Assay results published in patent US20240025949A1, “Beta-Arrestin Effectors and Compositions and Methods of Use Thereof” (Trevena, Inc., priority 2021, published 2024).
Where no end group is shown, it is not given here.

T1: rat AT1aR (Rattus norvegicus, UniProt P25095)
T1 construct: ProLink (β-galactosidase enzyme-donor fragment, from the pCMV-ProLink vector)
T1 sequence (P25095 1-359): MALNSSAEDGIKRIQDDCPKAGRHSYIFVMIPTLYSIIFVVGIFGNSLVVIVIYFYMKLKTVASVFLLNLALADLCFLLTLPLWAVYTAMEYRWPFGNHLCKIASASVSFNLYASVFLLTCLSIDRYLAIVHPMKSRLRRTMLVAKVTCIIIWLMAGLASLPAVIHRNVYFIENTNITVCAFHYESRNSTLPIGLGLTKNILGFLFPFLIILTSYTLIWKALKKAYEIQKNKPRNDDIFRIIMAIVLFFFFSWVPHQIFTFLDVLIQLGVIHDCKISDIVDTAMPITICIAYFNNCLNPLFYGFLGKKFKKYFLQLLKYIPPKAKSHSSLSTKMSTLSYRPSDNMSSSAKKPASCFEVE


Columns and labels:
[1] = target: T1, rat AT1aR; experiment: PathHunter β-arrestin-2 recruitment assay, rat AT1aR; type: cell-based; details: PathHunter β-arrestin HEK293 cells, inactive = EC50 greater than 10 uM
[2] = target: human angiotensin 2 type 1 receptor (human) (UniProt P30556); experiment: cell-based or functional assay
Sequence of human angiotensin 2 type 1 receptor (human) (P30556 whole entry): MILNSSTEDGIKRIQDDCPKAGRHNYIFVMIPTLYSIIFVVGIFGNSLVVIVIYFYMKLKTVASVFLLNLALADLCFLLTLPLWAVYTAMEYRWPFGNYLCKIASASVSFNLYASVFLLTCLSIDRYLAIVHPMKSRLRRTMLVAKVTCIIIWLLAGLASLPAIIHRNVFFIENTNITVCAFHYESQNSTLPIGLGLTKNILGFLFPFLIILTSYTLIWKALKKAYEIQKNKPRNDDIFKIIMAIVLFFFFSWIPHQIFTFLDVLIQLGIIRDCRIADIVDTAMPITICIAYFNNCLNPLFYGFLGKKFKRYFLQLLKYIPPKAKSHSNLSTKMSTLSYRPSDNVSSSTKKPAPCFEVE

[3] = target: rat angiotensin 2 type 1 receptor (rat) (UniProt P25095); experiment: cell-based or functional assay

Row | rat AT1aR b-arrestin2 EC50 (M) [1] | IP One EC50 [2] | IP One Max [2] | b-arrestin2 EC50 [2] | b-arrestin2 Max [2] | IP One EC50 [3] | IP One Max [3] | b-arrestin2 EC50 [3] | b-arrestin2 Max [3] | Molecule
1 | inactive | – | – | – | – | – | – | – | – | CCCCC(=O)N(Cc1ccc(-c2ccccc2-c2nnn[nH]2)cc1)[C@H](C(=O)O)C(C)C [Valsartan]
2 | – | 160 nM | 13.5% | 8 nM | 59.3% | 32 nM | 19.3% | 14 nM | 79% | RVYYHPI (N-terminal Sar; C-terminal acid) [SEQ ID NO: 14 (Sar-Arg-Val-Tyr-Tyr-His-Pro-Ile-OH)]
3 | – | > 10000 nM | – | 1200 nM | 37.5% | > 10000 nM | – | 2100 nM | 60.4% | DRVYYHP (N-methyl; C-terminal amide) [SEQ ID NO: 61 (N-Me-Asp-Arg-Val-Tyr-Tyr-His-Pro-NH2)]
4 | – | > 10000 nM | – | 1700 nM | 62.3% | 240 nM | 14.7% | 1900 nM | 60.7% | FVYIHPFVYIHPFVYIHP (cyclic) [SEQ ID NO: 37 (Cyclo(Phe-Val-Tyr-Ile-His-Pro-Phe-Val-Tyr-Ile-His-Pro-Phe-Val-Tyr-Ile-His-Pro))]
5 | – | 3.6 nM | 10% | 430 nM | 42.1% | 330 nM | 35.3% | 450 nM | 64.4% | DRVYYHP-NH2 [SEQ ID NO: 57 (Asp-Arg-Val-Tyr-Tyr-His-Pro-NH2)]
6 | – | > 10000 nM | – | 680 nM | 43.1% | 920 nM | 20.8% | 2500 nM | 66.4% | VYIHPF (cyclic) [SEQ ID NO: 38 (Cyclo(Val-Tyr-Ile-His-Pro-Phe))]
7 | – | > 10000 nM | – | 20 nM | 82.9% | 64 nM | 24.6% | 19 nM | 91.4% | RVYYHP (N-terminal Sar; C-terminal D-Phe) [SEQ ID NO: 28 (Sar-Arg-Val-Tyr-Tyr-His-Pro-D-Phe-OH)]
8 | – | > 10000 nM | – | 530 nM | 35.9% | > 10000 nM | – | 530 nM | 50.1% | DRVYFHP-NH2 [SEQ ID NO: 63 (Asp-Arg-Val-Tyr-Phe-His-Pro-NH2)]
9 | – | > 10000 nM | – | 25 nM | 53% | > 10000 nM | – | 32 nM | 81.7% | ARVYIHPA (N-methyl residue; C-terminal acid) [SEQ ID NO: 34 (NMAla-Arg-Val-Tyr-Ile-His-Pro-Ala-OH)]
10 | – | > 10000 nM | – | 340 nM | 44% | > 10000 nM | – | 180 nM | 79.3% | ERVYYHP (D-residue; C-terminal amide) [SEQ ID NO: 60 (D-Glu-Arg-Val-Tyr-Tyr-His-Pro-NH2)]
11 | – | > 10000 nM | – | 1400 nM | 19.5% | > 10000 nM | – | 820 nM | 27.8% | ERVYYHP-NH2 [SEQ ID NO: 59 (Glu-Arg-Val-Tyr-Tyr-His-Pro-NH2)]
12 | – | > 10000 nM | – | 4600 nM | 43.4% | > 10000 nM | – | 43000 nM | 165% | RVYIHP-NH2 [SEQ ID NO: 13 (Arg-Val-Tyr-Ile-His-Pro-NH2)]
13 | – | 190 nM | 20.7% | 390 nM | 19.9% | 79 nM | 44.9% | 120 nM | 34.4% | RVYVHPI (N-terminal Sar; C-terminal amide) [SEQ ID NO: 12 (Sar-Arg-Val-Tyr-Val-His-Pro-Ile-NH2)]
14 | – | > 10000 nM | – | 330 nM | 48.7% | 1400 nM | 9.94% | 260 nM | 81.1% | DRVYYHP (D-residue; C-terminal amide) [SEQ ID NO: 58 (D-Asp-Arg-Val-Tyr-Tyr-His-Pro-NH2)]
15 | – | 2.7 nM | 7.1% | 12 nM | 67.9% | 12 nM | 30.5% | 9.3 nM | 79.8% | RVYIHP (N-terminal Sar; C-terminal norvaline) [SEQ ID NO: 35 (Sar-Arg-Val-Tyr-Ile-His-Pro-NVA-OH)]
16 | – | > 10000 nM | – | 1300 nM | 24.7% | > 10000 nM | – | 3900 nM | 44.2% | ERVYYHP (N-methyl; C-terminal amide) [SEQ ID NO: 62 (N-Me-Glu-Arg-Val-Tyr-Tyr-His-Pro-NH2)]
17 | – | > 10000 nM | – | 3.4 nM | 58.9% | 3.5 nM | 24.4% | 6.1 nM | 80.7% | RVYVHPI (N-terminal Sar; C-terminal acid) [SEQ ID NO: 11 (Sar-Arg-Val-Tyr-Val-His-Pro-Ile-OH)]
18 | – | > 10000 nM | – | 1200 nM | 39.5% | 100 nM | 19.2% | 1900 nM | 32.8% | RVYIHPRVYIHPRVYIHP (cyclic) [SEQ ID NO: 36 (Cyclo(Arg-Val-Tyr-Ile-His-Pro-Arg-Val-Tyr-Ile-His-Pro-Arg-Val-Tyr-Ile-His-Pro))]
19 | – | > 10000 nM | – | 100 nM | 58.1% | 13 nM | 6.2% | 37 nM | 75.9% | RVYVHPA (N-terminal Me2Gly; C-terminal acid) [SEQ ID NO: 31 (Me2G-Arg-Val-Tyr-Val-His-Pro-Ala-OH)]
20 | – | > 10000 nM | – | 40 nM | 54.9% | > 10000 nM | – | 31 nM | 86.9% | ARVYVHPA (N-methyl residue; C-terminal acid) [SEQ ID NO: 33 (NMAla-Arg-Val-Tyr-Val-His-Pro-Ala-OH)]
